Experimental data: patent publication US20220332804A1 (CSL INNOVATION, published 2022)
Numbering of substitutions follows the chain as printed.

What was measured:
Assay in all cases: SPR; KD relative to WT C2;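 further: biacore SPR at 37 °C, anti-C2 mAbs captured on an anti-human IgG chip, alanine or serine C2 surface mutants tested, KD from 1:1 fit compared with wild-type C2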
[1] = target: T1, human C2 G432A (human, UniProt P06681 21-752)
T1 sequence: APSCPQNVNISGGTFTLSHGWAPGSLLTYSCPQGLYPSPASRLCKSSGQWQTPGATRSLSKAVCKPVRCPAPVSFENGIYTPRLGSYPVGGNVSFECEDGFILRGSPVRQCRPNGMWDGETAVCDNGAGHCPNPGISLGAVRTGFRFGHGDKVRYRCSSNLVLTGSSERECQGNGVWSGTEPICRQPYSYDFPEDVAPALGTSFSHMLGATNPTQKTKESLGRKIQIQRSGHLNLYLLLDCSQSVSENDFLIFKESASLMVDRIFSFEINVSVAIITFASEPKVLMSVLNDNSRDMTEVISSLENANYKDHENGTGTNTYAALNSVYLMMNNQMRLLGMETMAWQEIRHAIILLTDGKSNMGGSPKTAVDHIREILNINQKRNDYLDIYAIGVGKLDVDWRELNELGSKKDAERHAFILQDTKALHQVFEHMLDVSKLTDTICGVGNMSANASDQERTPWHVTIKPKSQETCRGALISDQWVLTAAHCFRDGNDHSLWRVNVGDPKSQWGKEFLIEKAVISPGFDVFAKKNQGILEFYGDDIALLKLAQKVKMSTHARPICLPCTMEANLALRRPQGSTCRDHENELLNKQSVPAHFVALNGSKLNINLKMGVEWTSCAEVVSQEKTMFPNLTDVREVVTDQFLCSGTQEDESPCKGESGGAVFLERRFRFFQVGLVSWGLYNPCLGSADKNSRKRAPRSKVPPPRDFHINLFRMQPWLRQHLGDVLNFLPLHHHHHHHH

[2] = target: T2, human C2 E433A (human, UniProt P06681 21-752)
T2 sequence: T1 sequence with A412G, E413A

[3] = target: T3, human C2 V418A (human, UniProt P06681 21-752)
T3 sequence: T1 sequence with V398A, A412G

[4] = target: T4, human C2 Q447A (human, UniProt P06681 21-752)
T4 sequence: T1 sequence with A412G, Q427A

Fold diff [1]: 1 fold
Fold diff [2]: 1 fold
Fold diff [3]: 1 fold
Fold diff [4]: 4 fold
B1: RF16-214 (antibody, V domains shown)
VH: EVQLLESGGGLVQPGGSLRLSCAASGFTFSWYQMMWVRQAPGKGLEWVSRIYPSGGGTAYADSVKGRFTISRDNSKNTLYLQMNSLRAEDTAVYYCARDAGYGDNWGQGTLVTVSS
VL: QSALTQPPSVSVSPGQTASITCSGDKLGEKYASWYQQKAGQSPVMVIYQDRKRPSGIPERFSGSNSGNTATLTISGTQAMDEADYYCQAWDTRAVVFGGGTKLTVLG
